Consider three molecules from patent US9618524B2, “Method, composition, isolation and identification of a plaque particle and related biomarker” (Plaxgen Inc., priority 2012, dated 2017).

The chains are these.
B1: Beta-2-glycoprotein 1 (protein)
chain: GRTCPKPDDLPFSTVVPLKTFYEPGEEITYSCKPGYVSRGGMRKFICPLTGLWPINTLKCTPRVCPFAGILENGAVRYTTFEYPNTISFSCNTGFYLNGADSAKCTEEGKWSPELPVCAPIICPPPSIPTFATLRVYKPSAGNNSLYRDTAVFECLPQHAMFGNDTITCTTHGNWTKLPECREVKCPFPSRPDNGFVNYPAKPTLYYKDKATFGCHDGYSLDGPEEIECTKLGNWSAMPSCKASCKVPVKKATVVYQGERVKIQEKFKNGMLHGDKVSFFCKNKEKKCSYTEDAQCIDGTIEVPKCFKEHSSLAFWKTDASDVKPC
B2: Histidine-rich glycoprotein (protein)
chain: VSPTDCSAVEPEAEKALDLINKRRRDGYLFQLLRIADAHLDRVENTTVYYLVLDVQESDCSVLSRKYWNDCEPPDSRRPSEIVIGQCKVIATRHSHESQDLRVIDFNCTTSSVSSALANTKDSPVLIDFFEDTERYRKQANKALEKYKEENDDFASFRVDRIERVARVRGGEGTGYFVDFSVRNCPRHHFPRHPNVFGFCRADLFYDVEALDLESPKNLVINCEVFDPQEHENINGVPPHLGHPFHWGGHERSSTTKPPFKPHGSRDHHHPHKPHEHGPPPPPDERDHSHGPPLPQGPPPLLPMSCSSCQHATFGTNGAQRHSHNNNSSDLHPHKHHSHEQHPHGHHPHAHHPHEHDTHRQHPHGHHPHGHHPHGHHPHGHHPHGHHPHCHDFQDYGPCDPPPHNQGHCCHGHGPPPGHLRRRGPGKGPRPFHCRQIGSVYRLPPLRKGEVLPLPEANFPSFPLPHHKHPLKPDNQPFPQSVSESCPGKFKSGFPQVSMFFTHTFPK
B3: Inter-alpha-trypsin inhibitor heavy chain H1 (protein)
chain: SKSSEKRQAVDTAVDGVFIRSLKVNCKVTSRFAHYVVTSQVVNTANEAREVAFDLEIPKTAFISDFAVTADGNAFIGDIKDKVTAWKQYRKAAISGENAGLVRASGRTMEQFTIHLTVNPQSKVTFQLTYEEVLKRNHMQYEIVIKVKPKQLVHHFEIDVDIFEPQGISKLDAQASFLPKELAAQTIKKSFSGKKGHVLFRPTVSQQQSCPTCSTSLLNGHFKVTYDVSRDKICDLLVANNHFAHFFAPQNLTNMNKNVVFVIDISGSMRGQKVKQTKEALLKILGDMQPGDYFDLVLFGTRVQSWKGSLVQASEANLQAAQDFVRGFSLDEATNLNGGLLRGIEILNQVQESLPELSNHASILIMLTDGDPTEGVTDRSQILKNVRNAIRGRFPLYNLGFGHNVDFNFLEVMSMENNGRAQRIYEDHDATQQLQGFYSQVAKPLLVDVDLQYPQDAVLALTQNHHKQYYEGSEIVVAGRIADNKQSSFKADVQAHGEGQEFSITCLVDEEEMKKLLRERGHMLENHVERLWAYLTIQELLAKRMKVDREERANLSSQALQMSLDYGFVTPLTSMSIRGMADQDGLKPTIDKPSEDSPPLEMLGPRRTFVLSALQPSPTHSSSNTQRLPDRVTGVDTD

The test system of one assay is Tau plaque particles. Put plainly: Mass spectroscopy proteomics, semi-quantitative binding affinity of serum proteins (plaqueproteome, Table 2). Also noted: species or system human. The following applies: higher number = stronger affinity. The method in brief:
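Serum or plasma proteins captured on Thioflavin S-labelled Tau plaque particles (Tau-74, Tau-275 oligomers preformed in PBS at 37° C for 2 h; 1 h co-incubation at 37° C) were isolated by FACS sorting, then tryptically digested and identified by MS/MS (Sequest, human UniProt, strict trypsin).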
For B1, the “Semi-quantitative analysis of proteins binding to different plaque particles: Tau” value was 5.
Same read-out and setting: next, B2: 12; B3: 18.

Another assay deals with High Density cholesterol (Chl Large) plaque particles. The description is as above. The following applies: higher number = stronger affinity. Also noted: species or system human. A digest of the protocol: (§1)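 Read-out is MS/MS protein identification (Sequest, strict trypsin, 20 ppm parent tolerance; Scaffold probabilities) of serum proteins bound to flow-sorted cholesterol plaque particles. These particles formed when 50% atherosclerotic serum was incubated with 30 μg cholesterol aggregates for 1 hr at 37° C.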
Take B1: the “Semi-quantitative analysis of proteins binding to different plaque particles: Chl Large” value was 6.
On the same count and under the same terms, next, B2: 10; B3: 11.

The subject of a further assay is Low density cholesterol (Chl small) plaque particles. Described as above. Also noted: species or system human. The following applies: higher number = stronger affinity. The method in brief: as §1
Take B1: the “Semi-quantitative analysis of proteins binding to different plaque particles: Chl small” value worked out at 6.
Still for that read-out and setting: next, B2: 9; B3: 7.

A further assay deals with T1, alpha-synuclein plaque particles (Homo sapiens, UniProt P37840).
T1 construct: 140 amino acids polypeptide
The description is as above. The following applies: higher number = stronger affinity. The method in brief:
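AD-subject plasma or serum (800 μL of 50%) mixed with 30 μg preformed alpha-synuclein aggregates for 1 h at 37 °C; Thioflavin S-positive particles isolated by flow sorting. After reduction, acrylamide alkylation and overnight tryptic digestion, serum proteins identified by MS/MS with Sequest and Scaffold.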
Consider B1, for which the “Semi-quantitative analysis of proteins binding to different plaque particles: Synuclein” value stood at 7.
As to B2, the “Semi-quantitative analysis of proteins binding to different plaque particles: Synuclein” value is 9.
The same measure, in the same setting: for B3 the value was 10.

The target of another assay is T2, Abeta-42 plaque particles (Homo sapiens, UniProt P05067).
T2 construct: Abeta 1-42
Described as above. As to conditions: higher number = stronger affinity. A digest of the protocol:
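AD patient serum or plasma (50% in PBS) was incubated with Abeta-42 aggregates (30 μg) for 1 h at 37 °C, then stained with Thioflavin S for 30 min. Labeled particles were FACS-sorted, trypsin/Lys-C digested overnight and analyzed by MS/MS. Sequest searched human UniProt; Scaffold/Protein Prophet validated the identifications.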
With B1, the “Semi-quantitative analysis of proteins binding to different plaque particles: Abeta-42” value was 4.
The same measure, in the same setting: next, B2: 7.
As for B3, the “Semi-quantitative analysis of proteins binding to different plaque particles: Abeta-42” value amounted to 7.
